Results reported in patent publication US20090311283A1.

Experiments:
HLA-A*2401 (human) = experiment: competition with a 125I-labelled probe peptide for purified HLA, gel filtration; binding relative to the standard peptide
HLA-A*0301 (human) = experiment: competition with 125I-labelled probe peptide for purified HLA, gel filtration; value relative to standard peptide

HBV ENV 177 10-mer peptide […] (peptide; other documents disagree on this pair)
binding affinity ratio (IC50 of standard peptide / IC50 of test peptide) (HLA-A*0201 (human)): 0.0011

HBV ENV 177 9-mer peptide […] (peptide; other documents disagree on this pair)
binding affinity ratio (IC50 of standard peptide / IC50 of test peptide) (HLA-A*0201 (human)): 0.066

[…] (HBV ENV 249, 15-mer) (peptide; other documents disagree on this pair)
binding affinity ratio (IC50 of standard peptide / IC50 of test peptide) (HLA-DRB1*1101 (human)): 0.0018 | binding affinity ratio (IC50 of standard peptide / IC50 of test peptide) (HLA-DRB1*0701 (human)): 0.0047 | binding affinity ratio (IC50 of standard peptide / IC50 of test peptide) (HLA-DRB5*0101 (human)): 0.0069 | binding affinity ratio (IC50 of standard peptide / IC50 of test peptide) (HLA-DRB1*0101 (human)): 0.0026 | binding affinity ratio (IC50 of standard peptide / IC50 of test peptide) (HLA-DRB1*0401 (human)): 0.032

HBV ENV 362 peptide WYWGPSLY
binding affinity ratio (IC50 of standard peptide / IC50 of test peptide) (HLA-A*2401 (human)): 0.0001

HBV POL 377 LWDFSQF (peptide)
binding affinity ratio (IC50 of standard peptide / IC50 of test peptide) (HLA-A*0301 (human)): 0.0016

HBV ENV 177 8-mer peptide […] (peptide; other documents disagree on this pair)
binding affinity ratio (IC50 of standard peptide / IC50 of test peptide) (HLA-A*0201 (human)): 0.0019
